The source of these data is patent EP4342988A1 (Eberhard Karls Universität Tübingen, Medizinische Fakultät, dated 2024).

In assay [1] the target is 149 proteins which strongly interact with THAP1. The assay can be described thus: TAP-MS, anti-Flag pull-down of tagged THAP1 against empty vector, LC-MS/MS peak area ratios.
Assay [2] deals with T1, CTCF (CCCTC-binding factor / Transcriptional repressor CTCF) (UniProt P49711 1-727).
T1 sequence (looked up): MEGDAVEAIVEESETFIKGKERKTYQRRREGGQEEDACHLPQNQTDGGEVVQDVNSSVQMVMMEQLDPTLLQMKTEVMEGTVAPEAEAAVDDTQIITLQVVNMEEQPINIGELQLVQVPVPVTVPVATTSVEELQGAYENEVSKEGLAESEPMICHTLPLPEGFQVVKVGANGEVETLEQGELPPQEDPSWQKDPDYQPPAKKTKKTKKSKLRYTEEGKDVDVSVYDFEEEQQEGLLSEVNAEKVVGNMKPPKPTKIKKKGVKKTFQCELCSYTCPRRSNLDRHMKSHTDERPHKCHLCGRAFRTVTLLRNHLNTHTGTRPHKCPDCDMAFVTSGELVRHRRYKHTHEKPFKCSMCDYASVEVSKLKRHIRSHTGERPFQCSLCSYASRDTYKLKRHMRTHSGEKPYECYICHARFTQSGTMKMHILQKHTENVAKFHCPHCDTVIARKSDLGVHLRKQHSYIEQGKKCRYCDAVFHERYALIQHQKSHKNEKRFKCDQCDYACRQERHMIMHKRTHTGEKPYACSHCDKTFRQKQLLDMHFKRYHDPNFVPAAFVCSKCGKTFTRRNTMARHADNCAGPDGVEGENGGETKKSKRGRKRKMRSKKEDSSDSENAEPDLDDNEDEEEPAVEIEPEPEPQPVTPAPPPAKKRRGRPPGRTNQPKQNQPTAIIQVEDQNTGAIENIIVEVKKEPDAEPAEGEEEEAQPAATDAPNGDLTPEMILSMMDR
Nature of the assay: anti-Flag pull-down of tagged THAP1 from HEK-293 nuclear extract (TAP), Western blot.

B1: Strep/FLAG tagged THAP1 protein (other, human, UniProt Q9NVV9 1-213, looked up)
chain: MVQSCSAYGCKNRYDKDKPVSFHKFPLTRPSLCKEWEAAVRRKNFKPTKYSSICSEHFTPDCFKRECNNKLLKENAVPTIFLCTEPHDKKEDLLEPQEQLPPPPLPPPVSQVDAAIGLLMPPLQTPVNLSVFCDHNYTVEDTMHQRKRIHQLEQQVEKLRKKLKTAQQRCRRQERQLEKLKEVVHFQKEKDDVSERGYVILPNDYFEIVEVPA
notes: Bait of the TAP-MS pull-down from nuclear extract of HEK-293 cells on anti-Flag M2 agarose, with benzonase added; also called wild-type THAP1; hTHAP1; not shown: Strep/FLAG tag
B1: the log2 (TAP-MS ratio) in assay [1] stood at 15 log2. Further, the binding result in assay [2] is on record as “binds”.
